Columns and labels:
[1] = molecular target: T1, porcine pancreatic α-amylase (porcine, UniProt P00690 16-511); test: told in the legend of the α-amylase inhibition figure (FIG. 10)
T1 construct: Bought (Sigma); The source is named only for the ELISA with soluble VHs; the panning and phage ELISA paragraphs say only α-amylase; also called a-amylase
T1 sequence (looked up): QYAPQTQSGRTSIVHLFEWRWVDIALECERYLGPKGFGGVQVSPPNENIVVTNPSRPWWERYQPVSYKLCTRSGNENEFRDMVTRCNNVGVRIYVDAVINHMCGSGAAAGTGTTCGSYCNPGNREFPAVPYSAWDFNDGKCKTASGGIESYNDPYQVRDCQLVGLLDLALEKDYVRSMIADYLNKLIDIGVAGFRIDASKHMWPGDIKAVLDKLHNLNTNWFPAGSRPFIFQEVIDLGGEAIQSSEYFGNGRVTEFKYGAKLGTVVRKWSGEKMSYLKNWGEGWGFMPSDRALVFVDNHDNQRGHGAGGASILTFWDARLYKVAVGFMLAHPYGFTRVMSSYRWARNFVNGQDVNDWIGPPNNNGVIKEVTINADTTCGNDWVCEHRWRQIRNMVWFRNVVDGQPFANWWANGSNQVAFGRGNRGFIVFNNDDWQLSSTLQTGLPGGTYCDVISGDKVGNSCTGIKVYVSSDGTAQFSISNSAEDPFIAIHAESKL

[2] = molecular target: T1, porcine pancreatic α-amylase; test: phage ELISA, round 3 of heat denaturation panning; VH displayed on phage; member by Table 2, column R3
Procedure: For selection by heat denaturation, input phage in a multivalent display format was used (i.e., the phages were produced by using hyperphage for superinfection). The input phage was heated at 80° C. for 10 min, cooled at 4° C. for 20 min, centrifuged at maximum speed for 2 min in a microfuge and the supernatant was added to antigen-coated wells for binding. Three rounds of panning against α-amylase by the heat denaturation method were performed. A non-treatment panning was also carried out in parallel as control. […] Monoclonal Phage ELISA on single colonies was performed (Arbabi-Ghahroudi et al., 2009). ELISA-positive clones were subjected to DNA sequencing to identify their VHs (Arbabi-Ghahroudi et al., 2009). Isoelectric points, pIs, of the VHs were determined using the software Laser gene v6.0 (DNASTAR, Inc., Madison, Wis.).

bovine serum albumin = molecular target: T2, bovine serum albumin (bovine, UniProt P02769 25-607); test: ELISA, immobilized BSA, His6-tagged VH detected with anti-His-IgG/HRP (FIG. 9A)
T2 construct: also called BSA

[3] = molecular target: T1, porcine pancreatic α-amylase; test: ELISA, immobilized porcine pancreatic α-amylase, His6-tagged VH, anti-His-IgG/HRP
Procedure: To assess binding of VHs to a-amylase by ELISA, Maxisorp™ microtiter plates (Nunc) were coated with 100 μL of 10 μg/mL porcine pancreatic α-amylase (Sigma, Oakville, ON, Canada) in PBS overnight at 4° C. After blocking with 3% bovine serum albumin (300 μL) for 2 h at 37° C. and subsequent removal of blocking agent, 100 μL His₆-tagged VHs at concentrations of a few μM were added, followed by incubation for 2 h at 37° C. Wells were washed 5× with PBST and 100 μL rabbit anti-His-IgG/horse radish peroxidase (HRP) conjugate (Bethyl Laboratories, Inc., Montgomery, Tex.) was added at a dilution of 1:5000. The wells were then incubated for 1 h at 37° C. After washing the wells with PBST, 100 μL […] substrate (KPL, Gaithersburg, Md.) was added and the reaction, seen as color development, was stopped after 5 min by adding 100 μL of 1 M phosphoric acid. Absorbance values were measured at a wavelength of 450 nm using a microtiter plate reader. […] Assays were performed in duplicates.

protein A [4] = molecular target: T3, protein A (UniProt P38507 37-477); test: SPR (Biacore 3000), protein A immobilized; KD of native VH over KD of heat-denatured/cooled VH, unfolded at 5 µM
T3 construct: Immobilized unconjugated on a CM5 chip in SPR; used as HRP conjugate in the ELISA; also called protein A/HRP conjugate; horseradish peroxidase-protein A conjugate
Procedure: (§1) Immobilizations were carried out at a protein concentration of 50 μg/mL in 10 mM acetate buffer pH 4.5 using amine coupling kit supplied by the manufacturer. AD VHs were passed though Superdex™ 75 column (GE Healthcare) and the monomeric species were collected for refolding efficiency experiments. To obtain refolding efficiency values, VHs were incubated at 85° C. for 20 min at the concentration of 0.5 and 5 μM and were cooled to room temperature for 30 min. The VHs were centrifuged at 16,000 g in a microfuge for 5 min at 22° C. to pellet and remove any possible aggregates. […] The surfaces were washed thoroughly with the running buffer for regeneration. Refolding efficiencies were calculated from the amounts bound at steady state. Data were analyzed with BIAevaluation 4.1 software.

protein A [5] = molecular target: T3, protein A; test: SPR (Biacore 3000), protein A immobilized; KD of native VH over KD of heat-denatured/cooled VH, unfolded at 0.5 µM
Procedure: as §1

[6] = molecular target: T1, porcine pancreatic α-amylase; test: phage ELISA, round 4 of heat denaturation panning; VH displayed on phage; member by Table 2, column R4

T2 sequence (P02769 25-607 limits assumed): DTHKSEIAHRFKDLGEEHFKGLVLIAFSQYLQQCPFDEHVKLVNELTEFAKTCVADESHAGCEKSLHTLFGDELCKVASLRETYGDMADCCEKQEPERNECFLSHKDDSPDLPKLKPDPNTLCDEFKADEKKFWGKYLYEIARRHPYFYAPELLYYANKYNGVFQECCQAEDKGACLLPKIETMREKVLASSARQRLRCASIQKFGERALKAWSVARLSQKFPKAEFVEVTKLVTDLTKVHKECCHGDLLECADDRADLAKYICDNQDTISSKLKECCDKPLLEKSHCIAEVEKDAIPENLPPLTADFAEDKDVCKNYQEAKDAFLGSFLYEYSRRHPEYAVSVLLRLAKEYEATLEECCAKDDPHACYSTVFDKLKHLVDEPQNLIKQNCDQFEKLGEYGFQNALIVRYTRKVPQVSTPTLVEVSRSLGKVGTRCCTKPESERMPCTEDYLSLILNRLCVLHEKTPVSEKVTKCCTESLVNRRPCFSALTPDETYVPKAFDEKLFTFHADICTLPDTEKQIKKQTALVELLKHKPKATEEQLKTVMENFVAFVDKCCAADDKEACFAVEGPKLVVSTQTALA

B1: huVHAm302 (other)
VH: QVQLVESGGGLIKPGGSLRLSCAASGDTVSDESMTWVRQAPGKGLEWVSAISSSGGSTYYADSVKGRFTISRDNSKNTVYLQMNSLRAEDTAVYYCVTDNRSCQTSLCTSTTRSWGQGTMVTVSSGSEQKLSEEDLNHHHHHH
modifications: N-terminus pyroglutamine (pyroQ)
notes: Human VH single-domain antibody, soluble with c-Myc-His6 tag, amber codon at position 32 replaced by Glu; In the phage ELISA rows the same VH stood on phage (pIII fusion)
Does B1 bind [1]?
Result: binds

B2: huVHAm305 (other, not shown: small tags and cut ends)
VH: QVQLVESGGGLIKPGGSLRLSCAASGYRFNNEVMGWVRQAPGKGLEWVSAISSSGGSTYYADSVKGRFTISRDNSKNTVYLQMNSLRAEDTAVYYCVTSTPACNQDKCERWRPSWGQGTMVTASS
notes: amber codon read as Glu in E. coli TG1
Does B2 bind [2]?
Result: binds

B3: huVHAm416 (other)
VH: QVQLVESGGGLIKPGGSLRLSCAASGVSFTDDCMAWVRQAPGKGLEWVSAISSSGGSTYYADSVKGRFTISRDNSKNTVYLQMNSLRAEDTAVYYCVADHTQCRQPECESQLCSWGQGTMVTVSS
notes: Human VH single-domain antibody, soluble, amber codon replaced by Glu; In the phage ELISA rows the same VH stood on phage (pIII fusion); not shown: C-terminal c-Myc-His6 tag from vector pSJF2H
Which results are given for B3?
binding result (bovine serum albumin): no binding; binding result [3]: binds; TRE (%) (ratio of KDn to KDref) (protein A [4]): 97%; TRE (%) (ratio of KDn to KDref) (protein A [5]): 100%

B4: huVHAm303 (other, not shown: small tags and cut ends)
VH: QVQLVESGGGLIKPGGSLRLSCAASGFRFSYEVMGWVRQAPGKGLEWVSAISSSGGSTYYADSVKGRFTISRDNSKNTVYLQMNSLRAEDTAVYYCVTPKVDCETHPCRERPYFWGQGTMVTVSS
notes: as for B2
Does B4 bind [2]?
Result: binds

B5: huVHAm428 (other)
VH: QVQLVESGGGLIKPGGSLRLSCAASGFSLSDDCMGWVRQAPGKGLEWVSAISSSGGSTYYADSVKGRFTISRDNSKNTVYLQMNSLRAEDTAVYYCVTGNQACKHEPWPDEALLLGPRDNVTVSS
notes: as for B3
What does the source list for B5?
binding result (bovine serum albumin): no binding; binding result [3]: binds; TRE (%) (ratio of KDn to KDref) (protein A [4]): 86%; TRE (%) (ratio of KDn to KDref) (protein A [5]): 89%

B6: huVHAm430 (other, not shown: small tags and cut ends)
VH: QVQLVESGGGLIKPGGSLRLSCAASGDRVSPEDMAWVRQAPGKGLEWVSAISSSGGSTYYADSVKGRFTISRDNSKNTVYLQMNSLRAEDTAVYYCVTSGVPSGSFWGQETMVTVSS
notes: as for B2
Does B6 bind [6]?
Result: binds

B7: huVHAm406 (other, not shown: small tags and cut ends)
VH: QVQLVESGGGLIKPGGSLRLSCAASGFSFTPECMGWVRQAPGKGLEWVSAISSSGGSTYYADSVKGRFTISRDNSKNTVYLQMNSLRAEDTAVYYCVGHKNNCPGQGTMVTVSS
notes: as for B2
Does B7 bind [6]?
Result: binds

B8: huVHAm311 (other, not shown: small tags and cut ends)
VH: QVQLVESGGGLIKPGGSLRLSCAASGFRVTPECMTWVRQAPGKGLEWVSAISSSGGSTYYADSVKGRFTISRDNSKNTVYLQMNSLRAEDTAVYYCVRHEVECPTEQCPFHCPSWGQGTMVTVSS
notes: as for B2
Does B8 bind [2]?
Result: binds

B9: huVHAm304 (other)
VH: VQLVESGGGLIEPGGSLRLSCAASGFSFSDEGMAWVRQAPGKGLEWVSAISSSGGSTYYADSVKGRFTISRDNSKNTVYLQMNSLRAEDTAVYYCVRLPKQCTSPDCETEVSSWGQRTMVTVSS
notes: Human VH single-domain antibody, soluble, amber codons replaced by Glu; In the phage ELISA rows the same VH stood on phage (pIII fusion); not shown: C-terminal c-Myc-His6 tag from vector pSJF2H
Does B9 bind (bovine serum albumin)?
Result: no binding

What about the “TRE (%) (ratio of KDn to KDref)” value (protein A [4]) of the same binder?
Its value is 87%.

What about the “TRE (%) (ratio of KDn to KDref)” value (protein A [5]) of the same binder?
Its value is 99%.

B10: huVHAm309 (other)
VH: QVQLVESGGGLIKPGGSLRLSCAASGVNFSNEGMAWVRQAPGKGLEWVSAISSSGGSTYYADSVKGRFTISRDNSKNTVYLQMNSLRAEDTAVYYCVTAQRACANSPCPGSITSWGQETMVTVSS
notes: as for B3
Does B10 bind (bovine serum albumin)?
Result: no binding

Does B10 bind [3]?
Result: binds

And the “TRE (%) (ratio of KDn to KDref)” value (protein A [4])?
Its value is 93%.

And the “TRE (%) (ratio of KDn to KDref)” value (protein A [5])?
Its value is 94%.

B11: huVHAm301 (other, not shown: small tags and cut ends)
VH: QVQLVESGGGLIKPGGSLRLPCAASGFRISHEGMGWVRQAPGKGLEWVSAISSSGGSTYYADSVKGRFTISRDNSKNTAYLQMNSLRAEDTAVYYCVAYNEECTKPSCHTKARSWGQGTMVTVSS
notes: as for B2
Does B11 bind [2]?
Result: binds

B12: huVHAm427 (other)
VH: QVQLVESGGGLIKPGGSLRLSCAASGVTLSPECMAWVRQAPGKGLEWVSAISSSGGSTYYADSVKGRFTISRDNSKNTVYLQMNSLRAEDTAVYYCVSCEGENAFWGQGTMVTASS
notes: as for B3
Does B12 bind [6]?
Result: binds

B13: huVHAm316 (other)
VH: QVQLVESGGGLIKPGGSLRLSCAASGDRFTYESMGWVRQAPGKGLEWVSAISSSGGSTYYADSVKGRFTISRDNSKNTVYLQMNSLRAEDTAVYYCVALETACTRPACAHTPRFWGQGTMVTVSS
notes: as for B3
Does B13 bind [2]?
Result: binds

B14: huVHAm420 (other, not shown: small tags and cut ends)
VH: QVQLVESGGGLIKPGGSLRLSCAASGDRFSYEDMAWVPQAPGKGLEWVSAISSSGGSTYYADSVKGRFTISRDNSKNTVYLQMNSLRAEDTAVYYCVATEESCPEGNCPPPRRSWGQETMVTVSS
notes: as for B2
Does B14 bind [6]?
Result: binds

B15: huVHAm412 (other, not shown: small tags and cut ends)
VH: QVQLVESGGGLIKPGGSLRLSCAASGDMLSAECMGWVRQAPGKGLEWVSAISSSGGSTYYADSVKGRFTISRDNSKNTVYLQMNSLRAEDTAVYYCVAKPYHCAVQGTMVTVSS
notes: as for B2
Does B15 bind [6]?
Result: binds

B16: huVHAm431 (other)
VH: QVQLVESGGGLIKPGGSLRLSCAASGYTVSSECMGWVRQAPGKGLEWVSAISSSGGSTYYADSVKGRFTISRDNSKNTVYLQMNSLRAEDTAVYYCVRDSKNCHDKDCTRPYCSWGQGTMVTVSS
notes: Human VH single-domain antibody, soluble; In the phage ELISA rows the same VH stood on phage (pIII fusion); not shown: C-terminal c-Myc-His6 tag from vector pSJF2H
Does B16 bind [6]?
Result: binds

B17: huVHAm315 (other)
VH: QVQLVESGGGLIKPGGSLRLSCAASGDMFSSEGMAWVRQAPGKGLEWVSAISSSGGSTYYADSVKGRFTISRDNSKNTVYLQMNSLRAEDTAVYYCVAAPTTCTSHNCAEPFRSWGQETMVTVSS
notes: as for B3
Does B17 bind [2]?
Result: binds
